# Numbering of substitutions follows the chain as printed.
# T1: recombinant soluble murine C4.4a (mouse, UniProt Q91YK8 33-343, limits assumed)
# T1 construct: also called mouse C4.4a; mC4.4a
# T1 sequence (looked up): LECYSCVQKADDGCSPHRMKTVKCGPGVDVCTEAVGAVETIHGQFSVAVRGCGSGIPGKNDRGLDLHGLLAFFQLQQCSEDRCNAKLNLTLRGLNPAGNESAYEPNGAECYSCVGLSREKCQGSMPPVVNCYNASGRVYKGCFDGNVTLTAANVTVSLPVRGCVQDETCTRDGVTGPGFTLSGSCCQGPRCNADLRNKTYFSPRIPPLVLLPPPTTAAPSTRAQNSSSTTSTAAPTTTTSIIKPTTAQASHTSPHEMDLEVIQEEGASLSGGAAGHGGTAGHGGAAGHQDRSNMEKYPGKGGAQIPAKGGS
# T2: recombinant soluble human C4.4a (human, UniProt O95274 31-308)
# T2 construct: recombinant, soluble, purified protein; also called hC4.4a; full length C4.4a
# T2 sequence: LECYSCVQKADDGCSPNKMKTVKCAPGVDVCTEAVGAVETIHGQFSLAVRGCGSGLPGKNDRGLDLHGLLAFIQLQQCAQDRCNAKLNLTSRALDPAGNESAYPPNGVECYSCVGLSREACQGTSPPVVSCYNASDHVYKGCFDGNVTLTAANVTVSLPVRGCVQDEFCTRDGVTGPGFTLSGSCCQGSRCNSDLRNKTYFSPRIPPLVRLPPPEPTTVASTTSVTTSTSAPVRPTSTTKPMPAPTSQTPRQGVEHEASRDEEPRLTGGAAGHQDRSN
# B1: wild-type Fab M31-B01 (Fab, V domains shown)
# VH: EVQLLESGGGLVQPGGSLRLSCAASGFTFSNAWMSWVRQAPGKGLEWVSYISSSGSTIYYADSVKGRFTISRDNSKNTLYLQMNSLRAEDTAVYYCAREGLWAFDYWGQGTLVTVTS
# VL: QSVLTQPPSASGTPGQRVTISCTGSSSNIGAGYVVHWYQQLPGTAPKLLIYDNNKRPSGVPDRFSGSKSGTSASLAISGLRSEDEADYYCAAWDDRLNGPVFGGGTKLTVLG
# notes: Fab with 3×HA-tag and hexa-histidine tag at the C-terminus of the heavy chain, E. coli culture supernatant; also called M31-B01 (parental Fab)
# B2: M31-B01 Fab HC A32Y (Fab, V domains shown)
# VH: B1 VH with A32Y
# VL: B1 VL
# notes: Fab with 3×HA-tag and hexa-histidine tag at the C-terminus of the heavy chain, culture supernatant
# B3: M31-B01 Fab LC R94M (Fab, V domains shown)
# VH: B1 VH
# VL: B1 VL with R96M
# notes: as for B2
# B4: M31-B01 Fab LC W91Y (Fab, V domains shown)
# VH: B1 VH
# VL: B1 VL with W93Y
# notes: as for B2
# B5: M31-B01 Fab LC P96A (Fab, V domains shown)
# VH: B1 VH
# VL: B1 VL with P100A
# notes: as for B2
# B6: M31-B01 Fab HC Y102K (Fab, V domains shown)
# VH: B1 VH with Y106K
# VL: B1 VL
# notes: as for B2
# B7: M31-B01 Fab LC W91F (Fab, V domains shown)
# VH: B1 VH
# VL: B1 VL with W93F
# notes: as for B2
# B8: M31-B01 Fab LC N95aK (Fab, V domains shown)
# VH: B1 VH
# VL: B1 VL with N98K
# notes: as for B2
# B9: M31-B01 Fab LC T24S (Fab, V domains shown)
# VH: B1 VH
# VL: B1 VL with T23S
# notes: as for B2
# B10: M31-B01 Fab LC K53Q (Fab, V domains shown)
# VH: B1 VH
# VL: B1 VL with K55Q
# notes: as for B2
# B11: M31-B01 Fab HC T56S (Fab, V domains shown)
# VH: B1 VH with T57S
# VL: B1 VL
# notes: as for B2
# B12: M31-B01 Fab LC G95bR (Fab, V domains shown)
# VH: B1 VH
# VL: B1 VL with G99R
# notes: as for B2
# B13: M31-B01 Fab HC Y102W (Fab, V domains shown)
# VH: B1 VH with Y106W
# VL: B1 VL
# notes: as for B2
# B14: M31-B01 Fab HC I57T (Fab, V domains shown)
# VH: B1 VH with I58T
# VL: B1 VL
# notes: as for B2
# B15: M31-B01 Fab HC N31S (Fab, V domains shown)
# VH: B1 VH with N31S
# VL: B1 VL
# notes: as for B2
# B16: M31-B01 Fab LC W91E (Fab, V domains shown)
# VH: B1 VH
# VL: B1 VL with W93E
# notes: as for B2
# B17: wild-type Fab M20-D02 S-A (Fab, V domains shown)
# VH: EVQLLESGGGLVQPGGSLRLSCAASGFTFSDYQMTWIRQTPGKGLEWVSGVSWNGARTHYADSVKGRFTISRDNSKNTLYLQMNSLRAEDTAVYYCAKGDYLVYSAYYFDSWGQGTLVTVTS
# VL: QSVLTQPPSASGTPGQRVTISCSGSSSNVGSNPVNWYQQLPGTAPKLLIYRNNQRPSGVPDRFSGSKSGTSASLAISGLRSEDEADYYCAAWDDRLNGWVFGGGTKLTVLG
# notes: Fab with 3×HA-tag and hexa-histidine tag at the C-terminus of the heavy chain, E. coli culture supernatant; also called M20-D02 S-A (parental Fab)
# B18: M20-D02 S-A Fab LC A90R (Fab, V domains shown)
# VH: B17 VH
# VL: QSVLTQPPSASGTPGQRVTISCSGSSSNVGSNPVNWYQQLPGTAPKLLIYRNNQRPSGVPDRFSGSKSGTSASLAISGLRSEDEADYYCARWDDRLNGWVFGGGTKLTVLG
# notes: as for B2
# B19: M20-D02 S-A Fab HC D101E (Fab, V domains shown)
# VH: B17 VH with D110E
# VL: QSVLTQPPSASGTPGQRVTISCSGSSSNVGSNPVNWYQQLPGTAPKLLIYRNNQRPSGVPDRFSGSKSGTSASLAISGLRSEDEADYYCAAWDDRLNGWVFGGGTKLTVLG
# notes: as for B2
# B20: M20-D02 S-A Fab HC V51I (Fab, V domains shown)
# VH: B17 VH with V51I
# VL: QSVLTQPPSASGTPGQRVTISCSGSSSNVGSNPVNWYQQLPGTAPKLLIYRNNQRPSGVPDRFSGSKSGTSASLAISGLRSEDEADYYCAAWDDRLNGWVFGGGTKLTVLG
# notes: as for B2
# B21: M20-D02 S-A Fab HC A100bS (Fab, V domains shown)
# VH: B17 VH with A106S
# VL: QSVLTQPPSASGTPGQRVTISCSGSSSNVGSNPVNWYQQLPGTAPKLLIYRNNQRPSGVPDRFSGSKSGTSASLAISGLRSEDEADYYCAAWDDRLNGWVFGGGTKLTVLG
# notes: as for B2
# B22: M20-D02 S-A Fab HC R56S (Fab, V domains shown)
# VH: B17 VH with R57S
# VL: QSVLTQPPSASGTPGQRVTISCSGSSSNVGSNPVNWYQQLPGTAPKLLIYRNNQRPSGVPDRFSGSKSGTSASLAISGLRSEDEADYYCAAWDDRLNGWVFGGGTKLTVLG
# notes: as for B2
# B23: M20-D02 S-A Fab HC D101K (Fab, V domains shown)
# VH: B17 VH with D110K
# VL: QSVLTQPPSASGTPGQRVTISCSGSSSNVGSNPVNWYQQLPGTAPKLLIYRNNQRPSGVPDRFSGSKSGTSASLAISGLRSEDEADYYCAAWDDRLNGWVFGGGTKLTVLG
# notes: as for B2
# B24: M20-D02 S-A Fab HC S100aK (Fab, V domains shown)
# VH: B17 VH with S105K
# VL: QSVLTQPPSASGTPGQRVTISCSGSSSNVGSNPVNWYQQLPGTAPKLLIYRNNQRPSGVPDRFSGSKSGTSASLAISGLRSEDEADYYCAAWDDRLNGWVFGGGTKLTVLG
# notes: as for B2
# B25: M20-D02 S-A Fab HC D101R (Fab, V domains shown)
# VH: B17 VH with D110R
# VL: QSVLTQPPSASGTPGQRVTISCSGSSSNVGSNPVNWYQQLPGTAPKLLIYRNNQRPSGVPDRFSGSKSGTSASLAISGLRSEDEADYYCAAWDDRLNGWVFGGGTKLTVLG
# notes: as for B2
# B26: M20-D02 S-A Fab LC A90Q (Fab, V domains shown)
# VH: B17 VH
# VL: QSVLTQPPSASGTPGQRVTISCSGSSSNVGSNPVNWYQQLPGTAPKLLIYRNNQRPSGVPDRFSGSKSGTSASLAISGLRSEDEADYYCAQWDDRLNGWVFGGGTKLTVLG
# notes: as for B2
# B27: M20-D02 S-A Fab HC A100bR (Fab, V domains shown)
# VH: B17 VH with A106R
# VL: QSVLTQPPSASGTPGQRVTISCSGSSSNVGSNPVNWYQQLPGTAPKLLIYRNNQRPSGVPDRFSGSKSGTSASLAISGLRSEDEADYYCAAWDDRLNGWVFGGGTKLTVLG
# notes: as for B2
# B28: M20-D02 S-A Fab HC A55G (Fab, V domains shown)
# VH: B17 VH with A56G
# VL: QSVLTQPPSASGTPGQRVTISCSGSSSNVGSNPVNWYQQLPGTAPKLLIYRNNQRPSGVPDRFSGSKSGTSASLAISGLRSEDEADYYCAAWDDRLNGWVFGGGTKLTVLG
# notes: as for B2
# B29: M20-D02 S-A Fab HC S100aR (Fab, V domains shown)
# VH: B17 VH with S105R
# VL: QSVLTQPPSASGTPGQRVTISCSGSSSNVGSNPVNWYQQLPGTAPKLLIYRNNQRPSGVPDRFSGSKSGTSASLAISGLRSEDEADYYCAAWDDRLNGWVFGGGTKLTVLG
# notes: as for B2
# B30: M20-D02 S-A Fab LC N95aW (Fab, V domains shown)
# VH: B17 VH
# VL: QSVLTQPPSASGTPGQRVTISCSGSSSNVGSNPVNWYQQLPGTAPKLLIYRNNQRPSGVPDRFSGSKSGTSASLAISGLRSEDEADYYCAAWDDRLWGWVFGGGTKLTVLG
# notes: as for B2
# Target: T1, recombinant soluble murine C4.4a
# Experiment: direct ELISA, Fab supernatant on coated mouse C4.4a, signal normalized to Fab quantity
# Method: (§1) Cultures were diluted in 10% Smart Block in PBST and bound to the MTP plates for 1 h at 20° C. After washing with PBST, captured antibodies were incubated with a HRP-coupled anti-lambda antibody (Sigma, A5175) and detected by incubating the plate with 10 μM amplex red substrate (Invitrogen, A12222) for 30 minutes at 20° C. in the dark followed by fluorescence measurement. Determined quantification signals were checked to be in the dynamic range of an calibration series built up with concentrated parental Fab (M31-B01 or M20-D02-S-A) expression culture supernatant allowing a relative quantification of each individual Fab expression sample.
# (§2) To determine the activity of the mutated Fab variants on recombinant soluble human or mouse C4.4a a direct ELISA assay format was used. Briefly, MTP plates (Nunc maxisorp black, 460518) were coated with 2 μg/ml either human or mouse C4.4a diluted in coating buffer (Candor Bioscience GmbH, 121125) and incubated for 15 h at 4° C. After washing 3 times with PBST, plates were blocked with 100% Smart Block (Candor Bioscience GmbH, 113500) for 1 h at 20° C. and the washing steps were repeated. For binding of the Fab antibody fragments 20 μl of culturing supernatants were added to the plates for 1 h at 20° C. followed by washing. In some cases the washing stringency was increased by an additional incubation step with 10% Smart Block in PBST for 90 min followed by washing 3 times with PBST (“process B” in Table 10b). Bound parental Fabs and variants were then detected by a HA-epitope tag specific antibody HRP conjugate (Bethyl, A190-108P). 10 μM amplex red substrate (Invitrogen, A12222) was added to the plates and the fluorescence signal was detected using a common fluorescence reader, e.g. Tecan Ultra. Quantity normalized affinity signals were calculated as ratios of background corrected affinity and quantification signals in the respective ELISA: (Signalaffinity−Backgroundaffinity)/(Signalquantity−Backgroundquantity). The resulting values correlate mainly with the affinity in a positive manner, whereas not normalized values correlate additionally with the concentration of the binding Fab in the sample.
Binder,normalized affinity signal (average),normalized affinity signal (median),"normalized affinity signal (median, process A)"
B1,0.13,0.16,–
B2,–,0.01,–
B3,0.13,–,–
B4,2.79,–,–
B5,0.32,–,–
B6,0.21,–,–
B7,2.53,–,–
B8,0.12,–,–
B9,–,0.23,–
B10,–,0.35,–
B11,–,0.74,–
B12,1.01,–,–
B13,0.13,–,–
B14,–,0.73,–
B15,–,0.32,–
B16,0.4,–,–
B17,0.01,–,0.04
B18,0.17,–,–
B19,0.05,–,–
B20,–,–,0.16
B21,0.02,–,–
B22,–,–,0.06
B23,0.21,–,–
B24,0.06,–,–
B25,0.03,–,–
B26,0.29,–,–
B27,0.01,–,–
B28,–,–,0.04
B29,0.02,–,–

# Target: T2, recombinant soluble human C4.4a
# Experiment: direct ELISA, Fab supernatant on coated human C4.4a, signal normalized to Fab quantity
# Method: as §1, §2
Binder,normalized affinity signal (average),normalized affinity signal (median),"normalized affinity signal (median, process A)"
B1,1.11,1.23,–
B2,–,2.31,–
B3,1.3,–,–
B4,4.97,–,–
B5,0.95,–,–
B6,1.49,–,–
B7,4.3,–,–
B8,1.11,–,–
B9,–,0.77,–
B10,–,1.12,–
B11,–,1.58,–
B12,2.45,–,–
B13,1.65,–,–
B14,–,1.5,–
B15,–,1.53,–
B16,3.17,–,–
B17,0.04,–,0.15
B18,0.94,–,–
B19,0.31,–,–
B20,–,–,0.52
B21,0.34,–,–
B22,–,–,0.21
B23,1.65,–,–
B24,0.45,–,–
B25,0.61,–,–
B30,0.11,–,–
B26,1.41,–,–
B27,0.87,–,–
B28,–,–,0.15
B29,0.43,–,–

# Reference: patent publication US20120321619A1 (Bayer, published 2012)
